Laboratory results reported in publication PMC13066552 (Nature Communications, 2026).

Experiments:
[1] = target: Bpa 31-146 (Mycobacterium tuberculosis) (UniProt P9WKX3); experiment: NMR titration
native MS = target: the molecule itself; experiment: native MS
[2] = target: the molecule itself; experiment: methyl-TROSY NMR spectra compared

DNA-binding domain of human Telomeric Repeat-binding Factor 1 (residues 378-430) (domain or fragment)
Kd [1]: 1500 nM

B1: Mycobacterium tuberculosis bacterial proteasome activator Bpa, full-length wild type (natural protein)
chain: MVIGLSTGSDDDDVEVIGGVDPRLIAVQENDSDESSLTDLVEQPAKVMRIGTMIKQLLEEVRAAPLDEASRNRLRDIHATSIRELEDGLAPELREELDRLTLPFNEDAVPSDAELRIAQAQLVGWLEGLFHGIQTALFAQQMAARAQLQQMRQGALPPGVGKSGQHGHGTGQYL
stoichiometry N (native MS): 2 subunits

B2: Bpa 31-146 (domain or fragment)
chain: DSDESSLTDLVEQPAKVMRIGTMIKQLLEEVRAAPLDEASRNRLRDIHATSIRELEDGLAPELREELDRLTLPFNEDAVPSDAELRIAQAQLVGWLEGLFHGIQTALFAQQMAARA
stoichiometry N [2]: 12 subunits
